Drawing on article PMC11636682 (Science Advances, 2024), this text covers Kd for one molecule.

No end group written: not given here. *: point of attachment. Farnesyl = CC(C)=CCC/C(C)=C/CC/C(C)=C/C*

The target in the assay is T1, phosphodiesterase-δ (PDEδ) (UniProt O43924 1-150).
T1 construct: also called His6-MBP-tev-PDEδ; source: E. coli, purified
In words: ITC; 1 mM KRAS4a(167–186)HVR-FMe peptide in the syringe, 200 μM PDEδ in the cell; 25°C; 20 mM Hepes pH 7.3, 150 mM NaCl, 5 mM MgCl2, 1 mM TCEP; single binding site model. Particulars: both partners purified. (In general: In ITC the heat of successive injections is recorded.)

T1 sequence (O43924 whole entry, stated change not applied): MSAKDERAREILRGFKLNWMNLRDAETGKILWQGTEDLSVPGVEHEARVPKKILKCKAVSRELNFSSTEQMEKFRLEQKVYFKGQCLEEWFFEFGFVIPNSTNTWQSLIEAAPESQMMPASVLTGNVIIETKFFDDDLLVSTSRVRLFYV

B1: KRAS4a(167–186)HVR-FMe peptide (peptide, UniProt P01116-1 167-186, looked up)
peptide: RLKKISKEEKTPGCVKIKKC(Farnesyl)-OMe
notes: KRAS splice variant KRAS4a, hypervariable region, residues 167 to 186 (20-mer ending at the prenylated cysteine); also called prenylated 20-residue KRAS4a HVR peptide; KRAS4a-HVR peptide; source: synthetic peptide, bought: AnaSpec Peptides Inc
Take B1: binding was put at a Kd of 27 µM.
